Test results published in publication PMC10940770, “Loss of function and reduced levels of sphingolipid desaturase DEGS1 variants are both relevant in disease mechanism” (Journal of Lipid Research, 2024).
Where a chain is given by its changes, count along the chain named. Numbers in names are those of the source.

B1: DEGS1 (Homo sapiens) (protein)
chain: GSRVSREDFEWVYTDQPHADRRREILAKYPEIKSLMKPDPNLIWIIIMMVLTQLGAFYIVKDLDWKWVIFGAYAFGSCINHSMTLAIHEIAHNAAFGNCKAMWNRWFGMFANLPIGIPYSISFKRYHMDHHRYLGADGVDVDIPTDFEGWFFCTAFRKFIWVILQPLFYAFRPLFINPKPITYLEVINTVAQVTFDILIYYFLGIKSLVYMLAASLLGLGLHPISGHFIAEHYMFLKGHETYSYYGPLNLLTFNVGYHNEHHDFPNIPGKSLPLVRKIAAEYYDNLPHYNSWIKVLYDFVMDDTISPYSRMKRHQKGEMVLE
notes: full-length cDNA (from Hep3B RNA) in pcDNA3, untagged, transfected into DEGS1-knockout HEK-293T (KO-DES-HEK); cell homogenate with Triton X-100
B2: DEGS1 (Homo sapiens; N255S) (protein)
chain: B1 chain with N254S
notes: as for B1
B3: DEGS1 (Homo sapiens; N189D) (protein)
chain: B1 chain with N188D
notes: as for B1
B4: DEGS1 (Homo sapiens; L175Q) (protein)
chain: B1 chain with L174Q
notes: as for B1
B5: DEGS1 (Homo sapiens; A280V) (protein)
chain: B1 chain with A279V
notes: as for B1
B6: DEGS2 (Homo sapiens) (protein)
chain: GNSASRSDFEWVYTDQPHTQRRKEILAKYPAIKALMRPDPRLKWAVLVLVLVQMLACWLVRGLAWRWLLFWAYAFGGCVNHSLTLAIHDISHNAAFGTGRAARNRWLAVFANLPVGVPYAASFKKYHVDHHRYLGGDGLDVDVPTRLEGWFFCTPARKLLWLVLQPFFYSLRPLCVHPKAVTRMEVLNTLVQLAADLAIFALWGLKPVVYLLASSFLGLGLHPISGHFVAEHYMFLKGHETYSYYGPLNWITFNVGYHVEHHDFPSIPGYNLPLVRKIAPEYYDHLPQHHSWVKVLWDFVFEDSLGPYARVKRVYRLAKDGL
notes: full-length cDNA (from colon mucosa RNA) in pcDNA3, transfected into DEGS1-knockout HEK-293T (KO-DES-HEK); cell homogenate with Triton X-100

Columns and labels:
[1] = substrate: CCCCCCCCCCCCCCC[C@@H](O)[C@H](CO)NC(=O)CCCCCCCCCCCC; assay: LC-MS/MS of C13-Cerd7 formed; Hanes-Woolf plot; format: biochemical, Homo sapiens; conditions: 0.2 M Tris/HCl pH 7, 0.2% Triton X-100, 1 mM NADPH, 37°C, deuterated substrate
Excerpt: LC-MS/MS of C13-Cerd7 formed; Hanes-Woolf plot on DEGS1

[2] = substrate: CCCCCCCCCCCCCCC[C@@H](O)[C@H](CO)NC(=O)CCCCCCCCCCCC; assay: LC-MS/MS of C13-Cerd7 formed; Hanes-Woolf plot; format: biochemical, Homo sapiens; conditions: homogenate of transfected KO-DES-HEK (80 μg, 30 min) plus 100 μg KO-DES-HEK homogenate, 0.2 M Tris/HCl pH 7, 0.2% Triton X-100, 1 mM NADPH, 37°C, deuterated substrate
Excerpt: LC-MS/MS of C13-Cerd7 formed; Hanes-Woolf plot on DEGS2

[3] = homogenate of transfected KO-DES-HEK (80 μg, 30 min) plus 100 μg KO-DES-HEK homogenate

Protein | Km [1, 3] [µM] | also measured
B1 |  | Km ([1]; homogenate of transfected KO-DES-HEK (40 μg, 10 min) plus 100 μg KO-DES-HEK homogenate): 2.41 µM
B2 | 4.34 | 
B3 | 2.75 | 
B4 | 5.99 | 
B5 | 3.29 | 
B6 |  | Km [2]: 15.31 µM
